We go through one molecule from PMC4256270, “In Vivo Occupancy of Mitochondrial Single-Stranded DNA Binding Protein Supports the Strand Displacement Mode of DNA Replication”.

In this data set the target is T1, mtSSB (mitochondrial single-stranded DNA-binding protein) (human, UniProt Q04837 17-148).
T1 sequence: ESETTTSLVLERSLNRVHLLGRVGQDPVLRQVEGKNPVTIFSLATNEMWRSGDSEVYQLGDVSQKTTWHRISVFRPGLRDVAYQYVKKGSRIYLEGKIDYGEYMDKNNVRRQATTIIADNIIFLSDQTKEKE
Kind of data set: EMSA; 25 fmol DNA in 15 ul; no free template at tetramer:DNA 1:1 or higher; 10 mM Mg2+, 2 mM ATP; 20 mM Tris-HCl pH 8.0, 10 mM MgCl2, 100 ug/ml BSA, 1 mM DTT, 2 mM ATP, 10% glycerol, 15 min at room temperature; 10% native PAGE in 1x TBE. The following applies: protein: recombinant; chain copies: 4; label: 5'-32P; single strand, unstructured. On the technique in general: Mobility shift assays separate free from complexed probe on a gel.

B1: 6-dT (no predicted secondary structure; no stem) (ssDNA)
DNA: AACACCAGCAGAACTTTTTTAACAAGCAACACACAGAAGACA
Take B1: the binding result is “binds”.
